Columns and labels:
[1] = target: the molecule itself; assay: co-sedimentation; sedimentation (pelletation) assay of single purified PB1 domains by ultracentrifugation; soluble and pellet fractions on SDS-PAGE
[2] = target: T1, MEKK3^43–127 (MEKK3–PB1) (UniProt Q99759 43-127); assay: not stated; binding of NBR1–PB1 to MEKK3 'also measured'; method not given; conditions: both partners purified
T1 construct: MEKK3, residues 43-127 (PB1 domain); The His6 tag was kept for the gold-labelling and co-pelletation experiments; source: E. coli BL21 (DE3), expressed from pETM11, purified; not shown: His6, N-terminal, kept
T1 sequence (looked up): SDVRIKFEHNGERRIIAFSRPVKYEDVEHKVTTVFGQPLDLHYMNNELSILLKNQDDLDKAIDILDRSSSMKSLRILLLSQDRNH

[3] = target: the molecule itself; assay: co-sedimentation; co-pelleting assay: p62-PB1^1–122 with His6-tagged PB1 partner, 1 h on ice, 49,000 g, 4 °C, 30 min; pellet and supernatant on SDS-PAGE, Coomassie
[4] = target: T2, MBP-tagged wild-type AtNBR1–PB1^1–94 (Arabidopsis thaliana, UniProt Q9SB64 1-94); assay: pull-down; MBP–AtNBR1–PB1 on amylose resin, 4:1 molar excess of AtNBR1–PB1 (mutant); wash 15 mM HEPES pH 7.5, 500 mM NaCl; eluted with 30 mM maltose; SDS-PAGE; conditions: both partners purified
T2 construct: NBR1 autophagy receptor, Arabidopsis thaliana (AtNBR1), residues 1-94 (PB1 domain); Held on amylose resin in the pull-down; also called MBP–AtNBR1–PB1; source: E. coli BL21 (DE3), expressed as described for AtNBR1–PB1, buffer-exchanged; not shown: MBP, N-terminal, kept
T2 sequence (looked up): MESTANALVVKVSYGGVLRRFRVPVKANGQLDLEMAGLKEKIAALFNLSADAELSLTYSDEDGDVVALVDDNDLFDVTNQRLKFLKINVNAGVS

B1: p62^1–102 (domain or fragment, human, UniProt Q13501 1-102, looked up)
chain: MASLTVKAYLLGKEDAAREIRRFSFCCSPEPEAEAEAAAGPGPCERLLSRVAALFPALRPGGFQAHYRDEDGDLVAFSSDEELTMAMSYVKDDIFRIYIKEK
notes: p62/SQSTM1, human, residues 1-102 (PB1 domain); also called p62 PB1 domain 1–102; source: expressed and purified
B1: binds [1].

B2: TFG1^1–95 (Trk-fused gene 1, TFG1–PB1) (domain or fragment, human, UniProt Q92734 1-95, looked up)
chain: MNGQLDLSGKLIIKAQLGEDIRRIPIHNEDITYDELVLMMQRVFRGKLLSNDEVTIKYKDEDGDLITIFDSSDLSFAIQCSRILKLTLFVNGQPR
notes: TFG1 (Trk-fused gene 1), human, residues 1-95 (PB1 domain); source: E. coli BL21 (DE3), purified (Ni-NTA, 3C protease cleavage, Talon resin); not shown: His6, N-terminal, cleaved; MBP, N-terminal, cleaved
B2: binds [1].

B3: NBR1^1–85 (human NBR1–PB1) (domain or fragment, UniProt Q14596 1-85, looked up)
chain: MEPQVTLNVTFKNEIQSFLVSDPENTTWADIEAMVKVSFDLNTIQIKYLDEENEEVSINSQGEYEEALKMAVKQGNQLQMQVHEG
notes: NBR1, human, residues 1-85 (PB1 domain); The His6 tag was kept for the gold-labelling and co-pelletation experiments; also called HsNBR1^1–85; wild-type NBR1; source: E. coli BL21 (DE3), expressed from pETM11, purified; not shown: His6, N-terminal, kept
B3 gave a Kd [2] of 13.3 µM.

B4: p62-PB1^1–122 (p62/SQSTM1 residues 1–122) (domain or fragment, human, UniProt Q13501 1-122, looked up)
chain: MASLTVKAYLLGKEDAAREIRRFSFCCSPEPEAEAEAAAGPGPCERLLSRVAALFPALRPGGFQAHYRDEDGDLVAFSSDEELTMAMSYVKDDIFRIYIKEKKECRRDHRPPCAQEAPRNMV
notes: Forms helical filaments; also called p62-PB1 filaments; source: E. coli BL21 (DE3), purified (Ni-NTA, 3C protease cleavage, Talon resin); not shown: His6, N-terminal, cleaved; MBP, N-terminal, cleaved
B4: binds [3].

B5: AtNBR1^1–94 (AtNBR1–PB1) (domain or fragment, Arabidopsis thaliana, UniProt Q9SB64 1-94, looked up)
chain: T2 sequence (looked up)
notes: NBR1 autophagy receptor, Arabidopsis thaliana (AtNBR1), residues 1-94 (PB1 domain); Forms helical filaments; also called AtNBR1–PB1^1–94; NBR1^1–94 from Arabidopsis thaliana; source: E. coli BL21 (DE3), purified (Ni-NTA, 3C protease cleavage, Talon resin); not shown: His6, N-terminal, cleaved; MBP, N-terminal, cleaved
B5: binds [1]; binds [4].
